Measured values as given in US6713606.

Target: T1, purified human Lysn-Plasminogen, P00747
T1 chain: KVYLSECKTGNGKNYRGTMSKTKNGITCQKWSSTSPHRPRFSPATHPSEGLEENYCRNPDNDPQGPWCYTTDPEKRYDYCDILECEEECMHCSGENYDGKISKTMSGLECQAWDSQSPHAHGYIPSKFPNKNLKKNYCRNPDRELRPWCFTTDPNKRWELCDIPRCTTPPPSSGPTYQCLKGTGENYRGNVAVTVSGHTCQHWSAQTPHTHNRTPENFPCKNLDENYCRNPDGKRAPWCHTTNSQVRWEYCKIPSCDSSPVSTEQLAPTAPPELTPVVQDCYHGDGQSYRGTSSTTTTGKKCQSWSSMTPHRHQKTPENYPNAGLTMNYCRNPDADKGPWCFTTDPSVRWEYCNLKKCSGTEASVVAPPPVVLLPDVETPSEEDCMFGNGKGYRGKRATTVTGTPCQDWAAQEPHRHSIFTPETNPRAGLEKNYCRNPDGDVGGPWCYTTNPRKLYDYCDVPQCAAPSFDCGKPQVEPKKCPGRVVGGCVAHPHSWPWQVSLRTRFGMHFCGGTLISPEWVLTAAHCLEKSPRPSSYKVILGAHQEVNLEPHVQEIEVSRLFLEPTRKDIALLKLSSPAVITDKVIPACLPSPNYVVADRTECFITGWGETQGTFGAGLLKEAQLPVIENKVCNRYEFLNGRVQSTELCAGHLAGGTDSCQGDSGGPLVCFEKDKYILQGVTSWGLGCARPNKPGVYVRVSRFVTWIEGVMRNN

B1: thiolated streptokinase (protein)
chain: IAGPEWLLDRPSVNNSQLVVSVAGTVEGTNQDISLKFFEIDLTSRPAHGGKTEQGLSPKSKPFATDSGAMSHKLEKADLLKAIQEQLIANVHSNDDYFEVIDFASDATITDRNGKVYFADKDGSVTLPTQPVQEFLLSGHVRVRPYKEKPIQNQAKSVDVEYTVQFTPLNPDDDFRPGLKDTKLLKTLAIGDTITSQELLAQAQSILNKNHPGYTIYERDSSIVTHDNDIFRTILPMDQEFTYRVKNREQAYRINKKSGLNEEINNTDLISEKYYVLKKGEKPYDPFDRSHLKLFTIKYVDVDTNELLKSEQLLTASERNLDFRDLYDPRDKAKLLYNNLDAFGIMDYTLTGKVEDNHDDTNRIITVYMGKRPEGENASYHLAYDKDRYTEEEREVYSYLRYTGTPIPDNPNDK
- plasmin generation in the plasminogen activation assay (S-2251 substrate units): thiolated SK (1 nM), generated plasmin at a nearly linear of 4225 SU/ml
